B1: WSC02 [human] / CXCR4 wt (transfected 293T cells) [human] (parent complex)
chain 1: IVRWSKKVPCVS
chain 2: MEGISIYTSDNYTEEMGSGDYDSMKEPCFREENANFNKIFLPTIYSIIFLTGIVGNGLVILVMGYQKKLRSMTDKYRLHLSVADLLFVITLPFWAVDAVANWYFGNFLCKAVHVIYTVNLYSSVLILAFISLDRYLAIVHATNSQRPRKLLAEKVVYVGVWIPALLLTIPDFIFANVSEADDRYICDRFYPNDLWVVVFQFQHIMVGLILPGIVILSCYCIIISKLSHSKGHQKRKALKTTVILILAFFACWLPYYIGISIDSFILLEIIKQGCEFENTVHKWISITEALAFFHCCLNPILYAFLGAKFKTSAQHALTSVSRGSSLKILSKGKRGGHSSVSTESESSSFHSS

Variants of: B1
Assay: 12G5 antibody competition assay, flow cytometry on transfected 293T cells; 2 h incubation; IC50 set to 1000 µM if above the maximally used concentration; parent: 1e+03 nM; read off a plot

IC50 [µM] | Variant
~0.42 | chain 2 MEGISIYTSDNYTEEMGSGDYDSMKEPCFREENANFNKIFLPTIYSIIFLTGIVGNGLVILVMGYQKKLRSMTDKYRLHLSVADLLFVITLPFWAVDAVANWYFGNFLCKAVHVIYTVNLYSSVLILAFISLDRYLAIVHATNSQRPRKLLAEKVVYVGVWIPALLLTIPDFIFANVSEADDRYICERFYPNDLWVVVFQFQHIMVGLILPGIVILSCYCIIISKLSHSKGHQKRKALKTTVILILAFFACWLPYYIGISIDSFILLEIIKQGCEFENTVHKWISITEALAFFHCCLNPILYAFLGAKFKTSAQHALTSVSRGSSLKILSKGKRGGHSSVSTESESSSFHSS [chain 2 D187E]
~1.5 | chain 2 MEGISIYTSDNYTEEMGSGDYDSMKEPCFREENANFNKIFAPTIYSIIFLTGIVGNGLVILVMGYQKKLRSMTDKYRLHLSVADLLFVITLPFWAVDAVANWYFGNFLCKAVHVIYTVNLYSSVLILAFISLDRYLAIVHATNSQRPRKLLAEKVVYVGVWIPALLLTIPDFIFANVSEADDRYICDRFYPNDLWVVVFQFQHIMVGLILPGIVILSCYCIIISKLSHSKGHQKRKALKTTVILILAFFACWLPYYIGISIDSFILLEIIKQGCEFENTVHKWISITEALAFFHCCLNPILYAFLGAKFKTSAQHALTSVSRGSSLKILSKGKRGGHSSVSTESESSSFHSS [chain 2 L41A]
~690 | chain 2 MEGISIYTSDNYTEEMGSGDYDSMKEPCFREENANFNKIFLPTIYSIIFLTGIVGNGLVILVMGYQKKLRSMTDKYRLHLSVADLLFVITLPFWAVQAVANWYFGNFLCKAVHVIYTVNLYSSVLILAFISLDRYLAIVHATNSQRPRKLLAEKVVYVGVWIPALLLTIPDFIFANVSEADDRYICDRFYPNDLWVVVFQFQHIMVGLILPGIVILSCYCIIISKLSHSKGHQKRKALKTTVILILAFFACWLPYYIGISIDSFILLEIIKQGCEFENTVHKWISITEALAFFHCCLNPILYAFLGAKFKTSAQHALTSVSRGSSLKILSKGKRGGHSSVSTESESSSFHSS [chain 2 D97Q]
~380 | chain 2 MEGISIYTSDNYTEEMGSGDYDSMKEPCFREENANFNKIFLPTIYSIIFLTGIVGNGLVILVMGYQKKLRSMTDKYRLHLSVADLLFVITLPFWAVNAVANWYFGNFLCKAVHVIYTVNLYSSVLILAFISLDRYLAIVHATNSQRPRKLLAEKVVYVGVWIPALLLTIPDFIFANVSEADDRYICDRFYPNDLWVVVFQFQHIMVGLILPGIVILSCYCIIISKLSHSKGHQKRKALKTTVILILAFFACWLPYYIGISIDSFILLEIIKQGCEFENTVHKWISITEALAFFHCCLNPILYAFLGAKFKTSAQHALTSVSRGSSLKILSKGKRGGHSSVSTESESSSFHSS [chain 2 D97N]
~30 | chain 2 MEGISIYTSDNYTEEMGSGDYDSMKEPCFREENANFNKIFLPTIYSIIFLTGIVGNGLVILVMGYQKKLRSMTDKYRLHLSVADLLFVITLPFWAVTAVANWYFGNFLCKAVHVIYTVNLYSSVLILAFISLDRYLAIVHATNSQRPRKLLAEKVVYVGVWIPALLLTIPDFIFANVSEADDRYICDRFYPNDLWVVVFQFQHIMVGLILPGIVILSCYCIIISKLSHSKGHQKRKALKTTVILILAFFACWLPYYIGISIDSFILLEIIKQGCEFENTVHKWISITEALAFFHCCLNPILYAFLGAKFKTSAQHALTSVSRGSSLKILSKGKRGGHSSVSTESESSSFHSS [chain 2 D97T]

Further lines, the variant ahead of its results:

Variant | IC50 [µM]
chain 2 MEGISIYTSDNYTEEMGSGDYDSMKEPCFREENANFNKIFLPTIYSIIFLTGIVGNGLVILVMGYQKKLRSMTDKYRLHLSVADLLFVITLPFWAVDAVANWYFGNFLCKAVHVIYTVNLYSSVLILAFISLDRYLAIVHATNSQRPRKLLAEKVVYVGVWIPALLLTIPDFIFANVSEADDRYICDRFYPNDLWVVVFQFQHIMVGLILPGIVILSCYCIIISKLSHSKGHQKRKALKTTVILILAFFACWLPYYIGISIASFILLEIIKQGCEFENTVHKWISITEALAFFHCCLNPILYAFLGAKFKTSAQHALTSVSRGSSLKILSKGKRGGHSSVSTESESSSFHSS [chain 2 D262A] | ~0.45
chain 2 MEGISIYTSDNYTEEMGSGDYDSMKEPCFREENANFNKIFLPTIYSIIFLTGIVGNGLVILVMGYQKKLRSMTDKYRLHLSVADLLFVITLPFWAVSAVANWYFGNFLCKAVHVIYTVNLYSSVLILAFISLDRYLAIVHATNSQRPRKLLAEKVVYVGVWIPALLLTIPDFIFANVSEADDRYICDRFYPNDLWVVVFQFQHIMVGLILPGIVILSCYCIIISKLSHSKGHQKRKALKTTVILILAFFACWLPYYIGISIDSFILLEIIKQGCEFENTVHKWISITEALAFFHCCLNPILYAFLGAKFKTSAQHALTSVSRGSSLKILSKGKRGGHSSVSTESESSSFHSS [chain 2 D97S] | ~320
chain 2 MEGISIYTSDNYTEEMGSGDYDSMKEPCFREENANFNKIFLPTIYSIIFLTGIVGNGLVILVMGYQKKLRSMTDKYRLHLSVADLLFVITLPFWAVEAVANWYFGNFLCKAVHVIYTVNLYSSVLILAFISLDRYLAIVHATNSQRPRKLLAEKVVYVGVWIPALLLTIPDFIFANVSEADDRYICDRFYPNDLWVVVFQFQHIMVGLILPGIVILSCYCIIISKLSHSKGHQKRKALKTTVILILAFFACWLPYYIGISIDSFILLEIIKQGCEFENTVHKWISITEALAFFHCCLNPILYAFLGAKFKTSAQHALTSVSRGSSLKILSKGKRGGHSSVSTESESSSFHSS [chain 2 D97E] | ~8
chain 2 MEGISIYTSDNYTEEMGSGDYDSMKEPCFREENANFNKIFLPTIYSIIFLTGIVGNGLVILVMGYQKKLRSMTDKYRLHLSVADLLFVITLPFWAVDAVANWYFGNFLCKAVHVIYTVNLYSSVLILAFISLDRYLAIVHATNSQRPRKLLAEKVVYVGVWIPALLLTIPDFIFANVSEADDRYICDRFYPNDLWVVVFQFQHIMVGLILPGIVILSCYCIIISKLSHSKGHQKRKALKTTVILILAFFACWLPYYIGISIDSFILLEIIKQGCEFANTVHKWISITEALAFFHCCLNPILYAFLGAKFKTSAQHALTSVSRGSSLKILSKGKRGGHSSVSTESESSSFHSS [chain 2 E277A] | ~0.75

Source: publication PMC8458281, “Computational modeling and experimental validation of the EPI-X4/CXCR4 complex allows rational design of small peptide antagonists” (Communications Biology, 2021)
